The target in test [1] is T1, hCen2, purified (GST removed) (human, UniProt P41208 1-172).
T1 sequence: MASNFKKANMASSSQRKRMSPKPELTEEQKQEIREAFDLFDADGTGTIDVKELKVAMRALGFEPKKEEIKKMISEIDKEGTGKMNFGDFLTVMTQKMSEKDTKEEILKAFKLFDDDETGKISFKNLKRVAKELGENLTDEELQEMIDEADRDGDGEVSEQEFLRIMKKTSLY
Kind of test: pull-down.

The target of test [2] is T2, hCen3, purified (GST removed) (human, UniProt O15182 1-167).
T2 sequence: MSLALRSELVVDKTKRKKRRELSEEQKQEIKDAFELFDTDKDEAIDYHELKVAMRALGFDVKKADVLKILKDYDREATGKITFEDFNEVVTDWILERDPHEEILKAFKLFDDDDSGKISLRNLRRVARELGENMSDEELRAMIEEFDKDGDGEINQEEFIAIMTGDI
Kind of test: pull-down.

Results on one molecule are retold here after paper PMC2700515 (The Journal of Cell Biology, 2009).

B1: GST-hPOC5 CBR2+3 (aa 222-304) (domain or fragment)
chain: EISIGRKDEVISSLSHAIGKQKEKIELMRTFFHWRIGHVRARQDVYEGKLADQYYQRTLLKKVWKVWRSVVQKQWKDVVERAC
For B1, the binding result in test [1] and in test [2] was “binds” in each case.
